Assay: soluble on expression in E. coli; label from the status in PepcDB or PDB records

Soluble on expression in E. coli, not soluble:
MGSDKIHHHHHHMIPEDVLAFFDLKQGRRPKAILNVLVGKMTVSALFWGLEYDILEYLNFWKTIDTTSFLENVDRAVEGGFLAKKDELIYLTEAGQQKQFSCTTPTPFIKKVRLDEAIDLLLLANQVISEFSFKNNRYIPVSDNLRINVILKNWFKQLKSRNHHTTDIVQKYTQGLDELLSQLQQHDADILLSYLPNHVDPGWTIDQLAQAFGISKFQMELKIRLIFSKIISDAVLTKIAPFVDLLNSTIKENVMPDSTYQTWQLIRQGKTVDEVARLKHVKTNTVKEHILMAAILDSNFPFDKFVRFNFEIGKHPTEVDFRSIQSQIADITFFDFRLIQIRKIKEQQNNNGNR
MGSDKIHHHHHHMIPLSRPDINEQDIERVVEVLKSGRLSLGEYTKRFGEMVAEYTGARFGWAVSSGTAALHLILESLDIDEGDLILVPSFTFIASVNVILMKRAIPVFVDVDERTLNVSPETLEEAVKRCLKGFKQGNIEIKGKPRLFMAVDVFGHPLDWDGILDVCQRYGIAVVEDSCEALGSEYKGRKVGTFGVAGAFAFYPNKQITTGEGGVVVTNDEKIHTAVKSMSNQGRGEGDEWLYHVRFGYNYRIDEMSAALGCSQMERIDEIVEKRAEAAERYSKMLKEFSWVKVPVVEDYVTKMSWFVYVVRLEGPDRNRVMRYMEEKGVQVRNYFYPVHFQPFYEKLFGSMKGLLPVTERESEKTLAIPFFTSITESEQKTVVEILREAVERVG
MGSDKIHHHHHHMIQGKKFISPGTWFSMIYPSDWSEFEDGEGSFLFYNPEHWTGNFRISAYKEDAAAPGGMNYGKDSVRQELKENPSASLVKVGHLECAYSKEMFEEEGIYYTSHLWVTGIDNVAFECSFTVPKGEHVDEAEKIISSLEIRKDGQKYPAEIIPIRLSEIYQVNEAYEWVTDTVKTQLKKDFQGLEEDLQKIQDVIDSGVLSPKKKEPWLAFGIAICTILANEVEGMEWMTLVDGNREVPVLRYEGSEQLIDPMKLLWSRVRAGETCEVAEAYKQALIH
MGSDKIHHHHHHMIREVKFESQDRRIKQIIAALNENGIKDIEEANAICEAAGLDPYKTCEETQPICFENAKWAYVVGSAIALKKGCKNAAEAAEAIGIGLQAFCIPGSVADDRKVGIGHGNLAAMLLREETKCFAFLAGHESFAAAEGAIKIAAKADKVRKEPLRCILNGLGKDAAQIISRINGFTYVQTEFDYFTGELKVVREIAYSDGPRAKVKCYGADDVREGVAIMWKEGVDVSITGNSTNPTRFQHPVAGTYKKERVLAGKPYFSVASGGGTGRTLHPDNMAAGPASYGMTDTMGRMHSDAQFAGSSSVPAHVEMMGFLGIGNNPMVGCTVACAVDVATALSK
MGSDKIHHHHHHMIRIGIDVGGTNTDAVVMDGTQVVAGVKSATTADVMSGVVNALKDVLAASRMAASAVDVVMIGTTHFTNAVVQRRDLAPTAAVRLGLPATASLPPMVDWPEDLKTAIGNHAWLAHGGNEFDGRVISPLNEEELLGIAAEIKVRGINSIAITSVLSPVSNEFEKRAAEIFAKALPGAHITLSSDIGRIGLLERENAAIMNACLRDLSAHVIEAFRKAIAETGIRGRFFLTQNDGTLMDAAFAEKFPVLTFASGPTNSMRGAAFLSGVDDAIVVDIGGTTSDVGSLQNGFPRQATVAVEVGGVRTNFRMPDVFSIGLGGGSLVVDGEHGVKVGPTSVGYRINTEALIFGGETLTTTDITVAAGNAELGDKARVAQLPKDLLDRTQAKILSMLEDCVERSRLSPDPLPVIVVGGGSILVNGPIGGLEVIKPNYFGVANAVGAAIAQVSGEIDRVYALAEIGRDQALDDAKARAIDAAVAAGASRDSVEIVDVEDVPLAYLPGNATRVRVKAVGELHVA
MGSDKIHHHHHHMIRKIVEIDQEKCNGCGICVPACAEGAIRIENGKAVLAADNLCDGLGACLGECPLDAIRIIERDADEFDEAAVEAHLGQTSRESHHAAHQPAPVHGGCPGSRAMVLDRPATESVRDVPRQESRLRQWPVQLHLVPTSAPYFRNADLLIAADCVPFAYADFHREFLDGRAVVVGCPKLDDNRFYTEKLTELIRVNDLKSITVVRMEVPCCGGIVMAARQALAASSKDIPLREVTVGISGELKGA
MGSDKIHHHHHHMITESRQMLDKRNRPLRDLRISVTDRCNFRCTYCMPAELFGPDYPFLKKEELLSFEELERLATLFVTRFGVEKIRLTGGEPLMRKDMPELIKKLARIPGIRDIAMTTNGSLLPVYAKRLKEAGLKRVTISLDSLEDERFKKINGRGVSVSKVLEGIEAAKQAGLGVKINMVVQKGVNEKDILPMARYFKEKGHILRFIEFMDVGNTNQWEKKDVMTKAEIIDLINKHMPVEPIAPNYIGEVASRFRYLDGSGEIGVISSVSDAFCGSCNRARLSARGELFTCLFASSGFDLRAPVRQELSDDELSEMIGTVWKNRIDQYSVDRTLSKASGKKKVEMSYIGG
MGSDKIHHHHHHMITSVAVVGCGWFGLPLAKALLSQGLKVTGSKRSPQEAEALSADGITGFALDLETLESEDLSSQTREAITQGLACDAIVINIPPGLRRGDNGYLDRLKRLKALMGTHEYQRIIFISTSGVYPAGGDSSGSGCVESDAKVHSPASETLLAAEALFSGANSADGVSNNHSDGSESNNSCVVVRFAGLIGPKRHPGRFLAGREDVPGGNLAVNMVHLDDCIGAVTLLLKAEGALSPAYNLCAPLHPTKAEFYQKAATQQGLTPPSFIEGDLAEDKRVDGGLITRELNYQYKFTDPLAMLTHC
MGSDKIHHHHHHMITTWKHHETIEKAKRNAEQKIVSNVEHVEHIALVNQKRVLDAFKRKQVSEHHFTPSTGYGYDDLGRETLEAVYADVFGAETALVRPQIISGTHAIATVLFGLLRPGDELLYITGKPYDTLEEVIGIRGEEGGGSLKDFGITYHAVPLTAEQKVDKAAVKAAMNERTKVIGIQRSKGYADRPSFSINEIEQMVQFVKGINPNVIVFVDNCYGEFVEAKEPCHVGVDVIAGSLIKNPGGGIVKTGGYVAGKAPYVKQASYRLAAPGIGTEGGATLYSLLEMFQGLFLAPHVVSQAVKGAHFTAAFLDELGMRTSPRYDEQRTDLIQSVQFPDREKMIAFCQAIQAASPIDAHVTPQPSSMPGYEDPVIMAAGTFIQGASIELTADGPVRPPYIAYVQGGLTYEHVKLAVMQAADEMLSLETKGTPS
MGSDKIHHHHHHMIYMRLKLSFIYDGDKFQPNKHAVQGFIYNMLRGTEYEDRHNRRGFKFFTFSDVFRDSKGYYSLLIASPDSGFINALYLSLKDRDHVYIGKDEIKLVEVKKFKLKLKRAFQTGSPVVIYKDSRKNEYFKLHEHRDLLFFLQRLKENAEKKFNSFYGDEFHLEGLIFDRVIPKVRKNGKVDVYVKVVKNGVPFPVIGTNWELLEKERIKPEERRFYRFIMDCGLGEKNSLGFGFLNPIKGVKN
MGSDKIHHHHHHMKAKAAFFDIDGTLYREGLISEVFKKLIKYEIIDEEKWYKEVRPEFEKWDNRKGDYDDYLLKMTEIYVDALNGLSKSQVEFIASQVVNQKGERVYTYTRDRIKWHKERGHKIITISGSPIELVRNMAEKYGFDDYRGAEYLLDENDVYTGEVIPMWDSKSKERAVHELEAKYNIDLGESYAYGDTSGDLTMLKMVGNPVCINPTKELVKEILSAAAVKNKIRIIVERKDMIYKISSRCLECDCEFVL
MGSDKIHHHHHHMKALAIAATGMNAQQTNLEVIANNIANINTTGYKRARAEFSDLLYQVDRTQGVPNRSNASLVPEGVSIGLGVKTTAVRNVHTQGELTSTGNSFDMALTGRGWFQIEGADGGTLYTRAGAFNTNATGQLVTVDGANVIPAITVPTDAVEVIVNKTGQVFARIDGQTNLQTLGQLQIVNFANEAGLAPLGDNLFQETTASGPANAGVPGDPGFATIQQGYLEASNVDPVKEITELISAQRAYEMNSKVIQAADDMASVVSKNIR
MGSDKIHHHHHHMKALWILLSLTLWLFGAQNLELIKGQALFLELDKKDFLSLKNNDKNIPTFAHPKNQEKILAIFSLPYKNPPQNTKLIAFYKDKKEEIFIKTLEGNYKSEKLQIENKKIFPPKTIQERITKELKEANAIYSSYTPKALFNGAFNIPLNSFITSDFGKARTFNEKVASYHSGTDFRATTGTPIYAANSGVVKIAKDRYFAGNSVVIDHGFGIYSQYYHLSKIDVKIGQKIKKGELIGLSGATGRVSGPHLHFGILAGGKQVDPLDFVSKFNAIFQ

Reference: the DeepSol protein solubility set
